The target in series [1] is T1, A. aeolicus DHO-ATC complex (DHO active site) (Aquifex aeolicus, UniProt O66990, H180A/H232A).
T1 construct: gene pyrC; both subunits full length with 3 kDa N-terminal His tag (pRSETC), expressed separately in E. coli BL21(DE3), mixed equimolar, dodecamer (6 DHO + 6 ATC) isolated by gel filtration; DHO 422 residues; with Aspartate carbamoyltransferase catalytic subunit
Put plainly: X-ray crystal structure, […] Å. Format: binding. To be noted: crystal soaked in 15 mM dihydroorotate, 1 mM PALA, pH 5; DHO active site with one zinc.

In series [2] the target is T2, A. aeolicus DHO-ATC complex (ATC active site) (Aquifex aeolicus, UniProt O66726).
T2 construct: gene pyrB; both with 3 kDa N-terminal His tag (pRSETC), E. coli BL21(DE3); with Dihydroorotase
The series is described as follows: X-ray crystal structure, […] Å. In kind it is binding. Particulars: crystal soaked in 1 mM PALA, 15 mM dihydroorotate, pH 5, bisubstrate analogue, mutations only in the DHO partner.

Substrate in series [3]: O=C1C[C@@H](C(=O)O)NC(=O)N1
Put plainly: colorimetric carbamoyl aspartate formation, saturation curve. Format: biochemical, Aquifex aeolicus. The text has this: colorimetric carbamoyl aspartate formation, saturation curve on A. aeolicus DHO-ATC complex (DHO active site)

For series [4], the target named is T3, Aquifex aeolicus dihydroorotase (DHO) subunit, His180Ala mutant (Aquifex aeolicus, UniProt O66990 1-422, His180Ala).
T3 construct: Dihydroorotase (pyrC) of Aquifex aeolicus with His180 replaced by alanine; made by PCR on the plasmid that encodes the DHO subunit; Same construct as m1 with the point mutation
T3 sequence: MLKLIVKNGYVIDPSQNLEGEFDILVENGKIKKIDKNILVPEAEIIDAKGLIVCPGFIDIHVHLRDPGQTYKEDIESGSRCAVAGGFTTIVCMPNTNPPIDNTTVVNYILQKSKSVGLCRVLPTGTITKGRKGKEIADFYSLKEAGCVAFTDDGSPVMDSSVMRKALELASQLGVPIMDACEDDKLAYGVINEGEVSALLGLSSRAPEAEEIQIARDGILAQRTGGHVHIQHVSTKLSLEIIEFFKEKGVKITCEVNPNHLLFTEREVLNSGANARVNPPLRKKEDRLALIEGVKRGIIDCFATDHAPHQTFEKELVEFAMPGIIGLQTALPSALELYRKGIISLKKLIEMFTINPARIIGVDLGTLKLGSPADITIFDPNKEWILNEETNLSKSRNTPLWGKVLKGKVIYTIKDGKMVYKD
The series is described as follows: SEC; purified subunits mixed in an equimolar ratio; complex isolated by gel filtration on a Sephacryl S-300 column; composition analysed by SDS-PAGE and ATC and DHO assays. Particulars: both partners purified. Background: In gel filtration, larger molecules generally elute earlier.

The target in series [5] is T4, Aquifex aeolicus dihydroorotase (DHO) subunit, His180Ala/His232Ala double mutant (Aquifex aeolicus, UniProt O66990 1-422, His180Ala | His232Ala).
T4 construct: Dihydroorotase (pyrC) of Aquifex aeolicus with His180 and His232 replaced by alanine; made by PCR on the plasmid that encodes the DHO subunit; 422 C-alpha atoms in the structure; Same construct as m1 with the two point mutations; In the crystal one zinc and dihydroorotate in the active site; also called DHO Double Mutant; mutant DHO
T4 sequence: T3 sequence with H232A
The series is described as above. To be noted: both partners purified.

The target in series [6] is T5, Aquifex aeolicus dihydroorotase (DHO) subunit, wild type (Aquifex aeolicus, UniProt O66990 1-422).
T5 construct: Dihydroorotase (pyrC) of Aquifex aeolicus; gene amplified by PCR from the genome and inserted into pRSETC; One zinc ion per subunit; also called Wild Type DHO; A. aeolicus DHO
T5 sequence: T3 sequence with A180H
The series is described as above. To be noted: both partners purified.

Series [7] has as its target T6, Aquifex aeolicus dihydroorotase (DHO) subunit, His232Ala mutant (Aquifex aeolicus, UniProt O66990 1-422, His232Ala).
T6 construct: Dihydroorotase (pyrC) of Aquifex aeolicus with His232 replaced by alanine; made by PCR on the plasmid that encodes the DHO subunit; Same construct as m1 with the point mutation
T6 sequence: T3 sequence with A180H, H232A
The description is as above. To be noted: both partners purified.

Series [8] concerns the molecule itself. Put plainly: crystal structure; DHO double mutant-ATC complex, hanging drop, room temperature, 30% ethylene glycol with barium chloride; crystals soaked in 1 mM PALA and 15 mM dihydroorotate at pH 5; 2.2 Å.
Where [9] appears, read: 250 mM Tris acetate (Figure 7; Methods: 50 mM), pH 8.3, 72°C, mutant DHO reconstituted with native ATC.

These results are taken from PMC3880350, “The mononuclear metal center of type-I dihydroorotase from aquifex aeolicus” (BMC Biochemistry, 2013).

Residue numbers refer to the chain shown, from its start. Names may count otherwise.

`O=C1C[C@@H](C(=O)O)NC(=O)N1` [dihydroorotate]: the “X-ray crystal structure, 2.2 Å” value in series [1] was “one DHO subunit with one zinc atom and dihydroorotate in its active site”.
Consider `O=C(O)C[C@H](NC(=O)CP(=O)(O)O)C(=O)O` [PALA], for which the “X-ray crystal structure, 2.2 Å” value in series [2] was “bisubstrate analog, N-phosphoacetyl L-aspartate (PALA) bound to the active site of the A. aeolicus ATC”.

B1: A. aeolicus DHO-ATC complex (DHO active site) (Aquifex aeolicus VF5) (protein)
chain: T3 sequence with A180H
notes: both subunits full length with 3 kDa N-terminal His tag (pRSETC), expressed separately in E. coli BL21(DE3), mixed equimolar, dodecamer (6 DHO + 6 ATC) isolated by gel filtration; DHO 422 residues; with Aspartate carbamoyltransferase catalytic subunit
Consider B1, for which the Km in series [3] (no exogenous zinc, 250 mM Tris acetate (Figure 4; Methods: 50 mM), pH 8.3, 75°C (Figure 4: 72°C), DHO reverse direction (hydrolysis)) was 1520 ± 300 µM.

B2: A. aeolicus DHO-ATC complex (DHO active site) (Aquifex aeolicus VF5; H180A) (protein)
chain: T3 sequence
notes: as for B1
As to B2, the Km in series [3] (setting [9]) is 1650 ± 260 µM.

B3: A. aeolicus DHO-ATC complex (DHO active site) (Aquifex aeolicus VF5; H180A/H232A) (protein)
chain: T3 sequence with H232A
notes: as for B1
Turning to B3, in series [3] (setting [9]), the Michaelis constant (Km) worked out at 1550 ± 300 µM.

B4: A. aeolicus DHO-ATC complex (DHO active site) (Aquifex aeolicus VF5; H232A) (protein)
chain: T3 sequence with A180H, H232A
notes: as for B1
Turning to B4, the Michaelis-Menten constant (Km) in series [3] (setting [9]) was found to be 1340 ± 220 µM.

B5: Aquifex aeolicus aspartate transcarbamoylase (ATC) subunit (enzyme)
chain: MRSLISSLDLTREEVEEILKYAKEFKEGKEETIKASAVLFFSEPSTRTRLSFEKAARELGIETYLVSGSESSTVKGESFFDTLKTFEGLGFDYVVFRVPFVFFPYKEIVKSLNLRLVNAGDGTHQHPSQGLIDFFTIKEHFGEVKDLRVLYVGDIKHSRVFRSGAPLLNMFGAKIGVCGPKTLIPRDVEVFKVDVFDDVDKGIDWADVVIWLRLQKERQKENYIPSESSYFKQFGLTKERFEKVKLYMHPGPVNRNVDIDHELVYTEKSLIQEQVKNGIPVRKAIYKFLWT
notes: Aspartate transcarbamoylase (pyrB) of Aquifex aeolicus; gene amplified by PCR from the genome and inserted into pRSETC; 291 residues superposed in the structure; also called native ATC; pyrB product
Take B5: the binding result in series [4], in series [5], in series [6] and in series [7] was “binds” each time. Moreover, the “stoichiometry N” value in series [8] is 3.

In general, Km refers to the concentration of substrate that gives half-maximal velocity. For orientation: stoichiometry N means the number of molecules, sites or subunits per partner or assembly.
